According to doi:10.1101/2024.12.26.630380:

Columns and labels:
Test in all cases: single-molecule fluorescence
pMcsB = target: T1, pMcsB (Geobacillus stearothermophilus (printed …, UniProt P0DMM5))
T1 sequence: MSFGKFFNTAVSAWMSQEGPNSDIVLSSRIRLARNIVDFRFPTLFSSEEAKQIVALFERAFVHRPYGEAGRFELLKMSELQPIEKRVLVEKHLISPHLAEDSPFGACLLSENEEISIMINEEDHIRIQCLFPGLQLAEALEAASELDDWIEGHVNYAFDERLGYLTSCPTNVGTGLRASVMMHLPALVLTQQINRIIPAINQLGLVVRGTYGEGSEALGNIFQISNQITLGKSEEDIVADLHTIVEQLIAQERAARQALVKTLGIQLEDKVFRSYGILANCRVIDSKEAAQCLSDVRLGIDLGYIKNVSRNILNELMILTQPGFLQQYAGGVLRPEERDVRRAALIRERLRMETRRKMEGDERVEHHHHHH

CtsR = target: T2, CtsR (Geobacillus stearothermophilus (printed …, UniProt C3W947))
T2 sequence: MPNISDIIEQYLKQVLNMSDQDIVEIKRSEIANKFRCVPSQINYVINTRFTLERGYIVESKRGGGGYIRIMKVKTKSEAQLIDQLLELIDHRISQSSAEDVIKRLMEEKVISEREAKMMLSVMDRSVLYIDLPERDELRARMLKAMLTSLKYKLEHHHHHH

pMcsB-HaloTag = target: T3, pMcsB-HaloTag (Geobacillus stearothermophilus (printed …, UniProt P0DMM5 1-363))
T3 sequence: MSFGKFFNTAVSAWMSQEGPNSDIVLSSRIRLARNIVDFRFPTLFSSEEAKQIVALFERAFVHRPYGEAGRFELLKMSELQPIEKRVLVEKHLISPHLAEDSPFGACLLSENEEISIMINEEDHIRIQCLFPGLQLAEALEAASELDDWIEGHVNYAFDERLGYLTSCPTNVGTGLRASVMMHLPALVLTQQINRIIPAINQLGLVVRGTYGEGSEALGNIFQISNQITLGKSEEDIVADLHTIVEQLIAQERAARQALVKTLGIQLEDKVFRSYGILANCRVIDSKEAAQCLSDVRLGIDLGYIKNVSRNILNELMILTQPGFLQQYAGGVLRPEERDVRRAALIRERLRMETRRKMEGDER

B1: cognate Cy3 DNA probe (T7 label) (dsDNA)
DNA 1: CGATTACGGCAATTCAGGAATACCGCTAATG
DNA 2: GCTGATTAAGGTCAAATATAGTCAAAATAGAGTTCATTAGCGGTATTCCTGAATTGCCGTAATCG
DNA 3: CTCTATTTTGACTATATTTGACCTTAATCAGC
modifications: amino-C6-dT at T7 of strand 3 (S8 printed split around it)
**Q.** Does B1 bind (pMcsB)?
**A.** Result: no binding

**Q.** What about the Kd (CtsR) of the same binder?
**A.** Its Kd is about 12 nM.

**Q.** Does B1 bind (pMcsB-HaloTag)?
**A.** Result: no binding
